# Test results reported in article PMC10487585, “Refolding Increases the Chaperone-like Activity of αH-Crystallin and Reduces Its Hydrodynamic Diameter to That of α-Crystallin” (International Journal of Molecular Sciences, 2023).
# T1: αB-crystallin (bovine (endogenous in steer lens), UniProt P02510 1-175)
# T1 construct: αB-crystallin (19.8 kDa), identified by mass on SDS-PAGE; source: purified from lenses of 6-month-old steers as a part of α-crystallin and HMWA
# T1 sequence (looked up): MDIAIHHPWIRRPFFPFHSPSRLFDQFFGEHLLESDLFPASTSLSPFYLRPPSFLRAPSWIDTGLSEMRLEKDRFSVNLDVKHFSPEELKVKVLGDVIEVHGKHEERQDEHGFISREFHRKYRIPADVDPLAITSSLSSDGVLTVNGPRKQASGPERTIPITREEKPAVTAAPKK
# Columns and labels:
# [1] = biological target: UV-damaged βL-crystallin (bovine (endogenous in steer lens))
# [2] = biological target: the molecule itself; assay: dynamic light scattering; ZetaSizer S nano; protein 1 mg/mL in PBS (40 mM sodium phosphate, pH 7.0, 100 mM NaCl, 1 mM EDTA, 3 mM NaN3); native protein without urea, or after renaturation from urea
# αB-crystallin = biological target: T1, αB-crystallin; assay: SEC; Sephacryl S300HR, 2.5 × 90 cm, 1.6 mL/min, calibrated with standard proteins; polypeptides of the preparations and fractions by SDS-PAGE; conditions: both partners purified
molecule,measurement,setting,value
refolded HMWA (from UniProt P02470 1-173; P02510 1-175) (complex),abscissa point of intersection (reciprocal of AC0) of the relative aggregation rate of UV-damaged βL-crystallin against the chaperone/target protein ratio; points with accelerated aggregation left out (mol/mol (chaperone/target protein)),[1],0.38
"αH-crystallin, high molecular weight aggregate (native) (from UniProt P02470 1-173; P02510 1-175) (complex)",abscissa point of intersection (reciprocal of AC0) of the relative aggregation rate of UV-damaged βL-crystallin against the chaperone/target protein ratio (mol/mol (chaperone/target protein)),[1],0.46
same,"initial adsorption capacity AC0 from the aggregation kinetics of UV-damaged βL-crystallin (37 °C, 360 nm): target protein/chaperone mol/mol ratio, counted on monomers (mol/mol (target protein/chaperone))",[1],2
"α-crystallin (native, from the lens cortex) (complex, bovine (endogenous in steer lens), αA-crystallin, from steer lens; identified by mass on SDS-PAGE (20 kDa); αB-crystallin, from steer lens; identified by mass on SDS-PAGE (19.8 kDa); Polydisperse oligomer; by SDS-PAGE αA-crystallin 30%, αB-crystallin 60%, truncated α-crystallin 10% (a mixture of αA and αB fragments); also called authentic α-crystallin; native α-crystallin; source: purified from lenses of 6-month-old steers (gel …)) chain 1: MDIAIQHPWFKRTLGPFYPSRLFDQFFGEGLFEYDLLPFLSSTISPYYRQSLFRTVLDSGISEVRSDRDKFVIFLDVKHFSPEDLTVKVQEDFVEIHGKHNERQDDHGYISREFHRRYRLPSNVDQSALSCSLSADGMLTFSGPKIPSGVDAGHSERAIPVSREEKPSSAPSS chain 2: MDIAIHHPWIRRPFFPFHSPSRLFDQFFGEHLLESDLFPASTSLSPFYLRPPSFLRAPSWIDTGLSEMRLEKDRFSVNLDVKHFSPEELKVKVLGDVIEVHGKHEERQDEHGFISREFHRKYRIPADVDPLAITSSLSSDGVLTVNGPRKQASGPERTIPITREEKPAVTAAPKK",binding result,[2],binds
"αA-crystallin (natural protein, bovine (endogenous in steer lens), UniProt P02470 1-173, looked up, αA-crystallin (20 kDa), identified by mass on SDS-PAGE; source: purified from lenses of 6-month-old steers as a part of α-crystallin and HMWA) MDIAIQHPWFKRTLGPFYPSRLFDQFFGEGLFEYDLLPFLSSTISPYYRQSLFRTVLDSGISEVRSDRDKFVIFLDVKHFSPEDLTVKVQEDFVEIHGKHNERQDDHGYISREFHRRYRLPSNVDQSALSCSLSADGMLTFSGPKIPSGVDAGHSERAIPVSREEKPSSAPSS",binding result,αB-crystallin,binds
"renatured α-crystallin (complex, bovine (endogenous in steer lens), αA-crystallin, from steer lens; as in m1; αB-crystallin, from steer lens; Same polypeptides as m1, reassembled from monomers after urea) chain 1: MDIAIQHPWFKRTLGPFYPSRLFDQFFGEGLFEYDLLPFLSSTISPYYRQSLFRTVLDSGISEVRSDRDKFVIFLDVKHFSPEDLTVKVQEDFVEIHGKHNERQDDHGYISREFHRRYRLPSNVDQSALSCSLSADGMLTFSGPKIPSGVDAGHSERAIPVSREEKPSSAPSS chain 2: MDIAIHHPWIRRPFFPFHSPSRLFDQFFGEHLLESDLFPASTSLSPFYLRPPSFLRAPSWIDTGLSEMRLEKDRFSVNLDVKHFSPEELKVKVLGDVIEVHGKHEERQDEHGFISREFHRKYRIPADVDPLAITSSLSSDGVLTVNGPRKQASGPERTIPITREEKPAVTAAPKK",binding result,[2],binds
